Columns and labels:
[1] = tested on: T1, GST-rCtrA (Ehrlichia chaffeensis), ORF:1c7d897d; assay: EMSA
T1 sequence: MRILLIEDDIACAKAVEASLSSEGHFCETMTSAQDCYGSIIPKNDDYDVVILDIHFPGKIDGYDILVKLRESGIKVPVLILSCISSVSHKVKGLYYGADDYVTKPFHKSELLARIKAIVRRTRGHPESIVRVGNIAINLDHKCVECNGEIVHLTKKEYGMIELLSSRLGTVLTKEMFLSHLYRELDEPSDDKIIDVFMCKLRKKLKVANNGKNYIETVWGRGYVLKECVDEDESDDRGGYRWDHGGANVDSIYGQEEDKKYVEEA

[2] = tested on: NCC(=O)O; assay: inorganic phosphate formation, ascorbic acid-molybdate, OD750; format: biochemical, Ehrlichia chaffeensis; settings: 10 mM Na3ATP, 5 mM gamma-glutamylcysteine, 20 mM MgCl2, 50 mM KCl, 2 mM EDTA, 2.5 mM DTT, 100 mM Tris-HCl pH 8.2, 37°C, 30 min
Description: inorganic phosphate formation, ascorbic acid-molybdate, OD750 on rGshB (E. chaffeensis GshB)

[3] = substrate: N[C@@H](CCC(=O)O)C(=O)O; assay: as above; format: biochemical, Ehrlichia chaffeensis; settings: 5 mM ATP, 10 mM L-alpha-aminobutyric acid, 20 mM MgCl2, 50 mM KCl, 2 mM EDTA, 100 mM Tris-HCl pH 8.0, 37°C, 30 min
Description: inorganic phosphate formation, ascorbic acid-molybdate, OD750 on SUMO-rGshA (E. chaffeensis GshA)

ATATAACCTAATAGTGACAAATAAATTAACAATAGTAGAAGTGTCATATAAAAGCAAGTCAGAATATAAATTTTTGTATAAAATATCGGTAACTTTTGTAAGGAAAATTTAATATATTACGTCAGGTAAGTAATAGCAAAAAAACTGGTTAAGTATAGTATCATGTGTAAAGGTGAGAAAAACAGCACTTATAAACTAGTCCCCCCCCCCCCCCTCTTATTGCTACATTCTTTTGCCACTATTTTTATTTACCTGCAGCA (double strand) [p28 promoter probe, 260 bp]
binding [1]: no binding

rGshB (E. chaffeensis GshB) (Ehrlichia chaffeensis str. Arkansas)
Km [2]: 940 ± 320 µM | Vmax [2]: 0.63 µmol/min/mg

B1: SUMO-rGshA (E. chaffeensis GshA) (Ehrlichia chaffeensis str. Arkansas) (protein)
chain: MTVIIDTLNDILTKYKLDIENWFFNKFTKYNPVLNISVDLRVSDYKIAPVDTNIFPAGYNNFTEQSQIYASRLLREYVVNYANCSKILIIAENHTRNLKYIDSLIVLKNIVNNAGFVVEVGICNINQNIELISSTGRVINCLCLTNDNGVLRAGCRFIPDLILVNNDMTSGIPEVLQGLKYQSIMPSLFLGWFNRSKSNHFSIYKKLSKEFCESFNIDPWLISAFFSSCSNICFFNSQGIDDIANEVDVVISKIRNKFQLYSIKEQPYVFVKADNGTYGMGILVAYCGDDILMLNRKKRNKMKKIKDGNVVSSVIIQEGITTREIFNGYVAEPLVYFIGHTPSCYLYRYHSVKDRFSNLNSVGCDFIDISYKQQDILYWNIIGKIAVLAAAIEMHEISNVNVMEQNCLLS
notes: tag kept
Km [3]: 1030 ± 20 µM | Vmax [3]: 0.52 µmol/min/mg
